Measured values: patent US20240139265A1

target: HLA-A*01:01 class I complex (biotinylated heavy chain with beta2-microglobulin) (human); experiment: UV peptide exchange + HLA class I ELISA; % of Pos control peptide; details: remark: other sources report otherwise

Row | Binder | exchange rate with Pos peptide [%]
1 | YLRRQKRLK (here or on the partner: biotinylated heavy chain) [P60 9-mer neoantigen peptide … (FOXA1.p.F266L missense)] | 3.1
2 | YCMAAPMGL (here or on the partner: biotinylated heavy chain) [P76 9-mer neoantigen peptide … (AR-V3 splice variant)] | 0.1
3 | CYLGRQKRF (here or on the partner: biotinylated heavy chain) [P61 9-mer neoantigen peptide … (FOXA1.p.R261G missense)] | 1.7
4 | QLIAMDSAI (here or on the partner: biotinylated heavy chain) [P22 9-mer neoantigen peptide … (SLC45A3-ELK4 fusion)] | 4.4
5 | RVGNCKHLK (here or on the partner: biotinylated heavy chain) [P82 9-mer neoantigen peptide … (AR-V7 splice variant)] | 1.5
6 | CPMSRLRLA (here or on the partner: biotinylated heavy chain) [P46 9-mer neoantigen peptide … (TP53 (R213D) frameshift)] | 2.4

The remaining lines, values ahead:

Row | exchange rate with Pos peptide [%] | Binder
7 | 4.3 | YQFTFDLLI (here or on the partner: biotinylated heavy chain) [P48 9-mer neoantigen peptide … (AR.p.H875Y missense)]
8 | 2.5 | HVPKILSGK (here or on the partner: biotinylated heavy chain) [P58 9-mer neoantigen peptide … (AR (Q903H) missense)]
9 | 2.5 | IVWWCPMSR (here or on the partner: biotinylated heavy chain) [P98 9-mer neoantigen peptide … (TP53 (R213D) frameshift)]
10 | 5.2 | IPVLTRWPL (here or on the partner: biotinylated heavy chain) [P19 9-mer neoantigen peptide … (TMEM222-LOC644961 fusion)]
11 | 2.6 | RAKCKFSIL (here or on the partner: biotinylated heavy chain) [P56 9-mer neoantigen peptide … (SPOP(F102C) missense)]
12 | 2.5 | LMAQRLLLR (here or on the partner: biotinylated heavy chain) [P97 9-mer neoantigen peptide … (FOXRED2-TXN2 fusion)]
13 | 4.9 | RAVRRMNTF (here or on the partner: biotinylated heavy chain) [P17 9-mer neoantigen peptide … (MSMB-NOCA4 fusion)]
14 | 1.1 | FLFLLLPLS (here or on the partner: biotinylated heavy chain) [P87 9-mer neoantigen peptide … (AR-Intron splice variant)]

target: HLA-A*02:01 class I complex (biotinylated heavy chain with beta2-microglobulin) (human); experiment: as above; details: remark: other sources report otherwise

Row | Binder | exchange rate with Pos peptide [%]
15 | YLRRQKRLK (here or on the partner: biotinylated heavy chain) [P60 9-mer neoantigen peptide … (FOXA1.p.F266L missense)] | 7.9
16 | YCMAAPMGL (here or on the partner: biotinylated heavy chain) [P76 9-mer neoantigen peptide … (AR-V3 splice variant)] | 85.9
17 | CYLGRQKRF (here or on the partner: biotinylated heavy chain) [P61 9-mer neoantigen peptide … (FOXA1.p.R261G missense)] | 5.8
18 | QLIAMDSAI (here or on the partner: biotinylated heavy chain) [P22 9-mer neoantigen peptide … (SLC45A3-ELK4 fusion)] | 46.9
19 | RVGNCKHLK (here or on the partner: biotinylated heavy chain) [P82 9-mer neoantigen peptide … (AR-V7 splice variant)] | 6.3
20 | CPMSRLRLA (here or on the partner: biotinylated heavy chain) [P46 9-mer neoantigen peptide … (TP53 (R213D) frameshift)] | 14.4

Now from value to binder:

Row | exchange rate with Pos peptide [%] | Binder
21 | 99.3 | YQFTFDLLI (here or on the partner: biotinylated heavy chain) [P48 9-mer neoantigen peptide … (AR.p.H875Y missense)]
22 | 11.8 | HVPKILSGK (here or on the partner: biotinylated heavy chain) [P58 9-mer neoantigen peptide … (AR (Q903H) missense)]
23 | 7.9 | IVWWCPMSR (here or on the partner: biotinylated heavy chain) [P98 9-mer neoantigen peptide … (TP53 (R213D) frameshift)]
24 | 8.2 | IPVLTRWPL (here or on the partner: biotinylated heavy chain) [P19 9-mer neoantigen peptide … (TMEM222-LOC644961 fusion)]
25 | 8.4 | RAKCKFSIL (here or on the partner: biotinylated heavy chain) [P56 9-mer neoantigen peptide … (SPOP(F102C) missense)]
26 | 4.6 | LMAQRLLLR (here or on the partner: biotinylated heavy chain) [P97 9-mer neoantigen peptide … (FOXRED2-TXN2 fusion)]
27 | 64 | FLFLLLPLS (here or on the partner: biotinylated heavy chain) [P87 9-mer neoantigen peptide … (AR-Intron splice variant)]
28 | 89.2 | LLERNSFEV (here or on the partner: biotinylated heavy chain) [P73 9-mer neoantigen peptide … (TP53 (G266E) missense)]

target: HLA-A*03:01 class I complex (biotinylated heavy chain with beta2-microglobulin) (human); experiment: as above; details: remark: other sources report otherwise

Row | Binder | exchange rate with Pos peptide [%]
29 | YLRRQKRLK (here or on the partner: biotinylated heavy chain) [P60 9-mer neoantigen peptide … (FOXA1.p.F266L missense)] | 36.6
30 | YCMAAPMGL (here or on the partner: biotinylated heavy chain) [P76 9-mer neoantigen peptide … (AR-V3 splice variant)] | 6
31 | QLIAMDSAI (here or on the partner: biotinylated heavy chain) [P22 9-mer neoantigen peptide … (SLC45A3-ELK4 fusion)] | 4.8
32 | RVGNCKHLK (here or on the partner: biotinylated heavy chain) [P82 9-mer neoantigen peptide … (AR-V7 splice variant)] | 58.1
33 | CPMSRLRLA (here or on the partner: biotinylated heavy chain) [P46 9-mer neoantigen peptide … (TP53 (R213D) frameshift)] | 10.3

The next lines start with the values.

Row | exchange rate with Pos peptide [%] | Binder
34 | 4.4 | YQFTFDLLI (here or on the partner: biotinylated heavy chain) [P48 9-mer neoantigen peptide … (AR.p.H875Y missense)]
35 | 32.5 | HVPKILSGK (here or on the partner: biotinylated heavy chain) [P58 9-mer neoantigen peptide … (AR (Q903H) missense)]
36 | 51.1 | IVWWCPMSR (here or on the partner: biotinylated heavy chain) [P98 9-mer neoantigen peptide … (TP53 (R213D) frameshift)]
37 | 4.1 | IPVLTRWPL (here or on the partner: biotinylated heavy chain) [P19 9-mer neoantigen peptide … (TMEM222-LOC644961 fusion)]
38 | 6.8 | RAKCKFSIL (here or on the partner: biotinylated heavy chain) [P56 9-mer neoantigen peptide … (SPOP(F102C) missense)]
39 | 39 | LMAQRLLLR (here or on the partner: biotinylated heavy chain) [P97 9-mer neoantigen peptide … (FOXRED2-TXN2 fusion)]
40 | 3.8 | RAVRRMNTF (here or on the partner: biotinylated heavy chain) [P17 9-mer neoantigen peptide … (MSMB-NOCA4 fusion)]
41 | 2.4 | FLFLLLPLS (here or on the partner: biotinylated heavy chain) [P87 9-mer neoantigen peptide … (AR-Intron splice variant)]
42 | 3.5 | LLERNSFEV (here or on the partner: biotinylated heavy chain) [P73 9-mer neoantigen peptide … (TP53 (G266E) missense)]

target: HLA-A*24:02 class I complex (biotinylated heavy chain with beta2-microglobulin) (human); experiment: as above; details: remark: other sources report otherwise

Row | Binder | exchange rate with Pos peptide [%]
43 | YLRRQKRLK (here or on the partner: biotinylated heavy chain) [P60 9-mer neoantigen peptide … (FOXA1.p.F266L missense)] | 0.9
44 | YCMAAPMGL (here or on the partner: biotinylated heavy chain) [P76 9-mer neoantigen peptide … (AR-V3 splice variant)] | -0.5
45 | CYLGRQKRF (here or on the partner: biotinylated heavy chain) [P61 9-mer neoantigen peptide … (FOXA1.p.R261G missense)] | 90.3
46 | QLIAMDSAI (here or on the partner: biotinylated heavy chain) [P22 9-mer neoantigen peptide … (SLC45A3-ELK4 fusion)] | 0
47 | RVGNCKHLK (here or on the partner: biotinylated heavy chain) [P82 9-mer neoantigen peptide … (AR-V7 splice variant)] | -0.1
48 | CPMSRLRLA (here or on the partner: biotinylated heavy chain) [P46 9-mer neoantigen peptide … (TP53 (R213D) frameshift)] | -0.4

Results, then the binder that gave them:

Row | exchange rate with Pos peptide [%] | Binder
49 | 0.1 | YQFTFDLLI (here or on the partner: biotinylated heavy chain) [P48 9-mer neoantigen peptide … (AR.p.H875Y missense)]
50 | 0.2 | HVPKILSGK (here or on the partner: biotinylated heavy chain) [P58 9-mer neoantigen peptide … (AR (Q903H) missense)]
51 | -0.1 | IVWWCPMSR (here or on the partner: biotinylated heavy chain) [P98 9-mer neoantigen peptide … (TP53 (R213D) frameshift)]
52 | 0.1 | IPVLTRWPL (here or on the partner: biotinylated heavy chain) [P19 9-mer neoantigen peptide … (TMEM222-LOC644961 fusion)]
53 | 0.5 | RAKCKFSIL (here or on the partner: biotinylated heavy chain) [P56 9-mer neoantigen peptide … (SPOP(F102C) missense)]
54 | 0.1 | LMAQRLLLR (here or on the partner: biotinylated heavy chain) [P97 9-mer neoantigen peptide … (FOXRED2-TXN2 fusion)]
55 | 0.1 | RAVRRMNTF (here or on the partner: biotinylated heavy chain) [P17 9-mer neoantigen peptide … (MSMB-NOCA4 fusion)]
56 | 0.2 | FLFLLLPLS (here or on the partner: biotinylated heavy chain) [P87 9-mer neoantigen peptide … (AR-Intron splice variant)]
57 | 0.5 | LLERNSFEV (here or on the partner: biotinylated heavy chain) [P73 9-mer neoantigen peptide … (TP53 (G266E) missense)]

target: HLA-B*07:02 class I complex (biotinylated heavy chain with beta2-microglobulin) (human); experiment: as above; details: remark: other sources report otherwise

Row | Binder | exchange rate with Pos peptide [%]
58 | YLRRQKRLK (here or on the partner: biotinylated heavy chain) [P60 9-mer neoantigen peptide … (FOXA1.p.F266L missense)] | 6.1
59 | YCMAAPMGL (here or on the partner: biotinylated heavy chain) [P76 9-mer neoantigen peptide … (AR-V3 splice variant)] | 91.5
60 | QLIAMDSAI (here or on the partner: biotinylated heavy chain) [P22 9-mer neoantigen peptide … (SLC45A3-ELK4 fusion)] | 8.3
61 | RVGNCKHLK (here or on the partner: biotinylated heavy chain) [P82 9-mer neoantigen peptide … (AR-V7 splice variant)] | 12.9
62 | CPMSRLRLA (here or on the partner: biotinylated heavy chain) [P46 9-mer neoantigen peptide … (TP53 (R213D) frameshift)] | 64.8

Second part, the binder after the results:

Row | exchange rate with Pos peptide [%] | Binder
63 | 12.8 | YQFTFDLLI (here or on the partner: biotinylated heavy chain) [P48 9-mer neoantigen peptide … (AR.p.H875Y missense)]
64 | 6.7 | IVWWCPMSR (here or on the partner: biotinylated heavy chain) [P98 9-mer neoantigen peptide … (TP53 (R213D) frameshift)]
65 | 91.3 | IPVLTRWPL (here or on the partner: biotinylated heavy chain) [P19 9-mer neoantigen peptide … (TMEM222-LOC644961 fusion)]
66 | 82.5 | RAKCKFSIL (here or on the partner: biotinylated heavy chain) [P56 9-mer neoantigen peptide … (SPOP(F102C) missense)]
67 | 7 | LMAQRLLLR (here or on the partner: biotinylated heavy chain) [P97 9-mer neoantigen peptide … (FOXRED2-TXN2 fusion)]
68 | 38.7 | RAVRRMNTF (here or on the partner: biotinylated heavy chain) [P17 9-mer neoantigen peptide … (MSMB-NOCA4 fusion)]
69 | 5 | FLFLLLPLS (here or on the partner: biotinylated heavy chain) [P87 9-mer neoantigen peptide … (AR-Intron splice variant)]
70 | 8.7 | LLERNSFEV (here or on the partner: biotinylated heavy chain) [P73 9-mer neoantigen peptide … (TP53 (G266E) missense)]
